{
  "source": "patent US20150260731A1",
  "about": "(ACUMEN PHARMACEUTICALS, published 2015)",
  "binders": {"B1": {"name": "6E10 (antibody, V domains shown)", "VH": "EVQLQQSGAELVKPGASVKLCTASGFNIKDTYIHWVKQRPEQGLEWIGRFDPVNVNTRYDSRFRGKATITSDASSNTAYLHLNSLTSEDTAVYYCSRSYYNGRRRFTYWGQGTLVTVSA", "VL": "DIVMTQSPSSLTVTAGEKVALTCKASQSLLSSGNQKNYLTWYQQKPGQPPKLLIYWASIRESGVPDRFTGSGSGTFFTLTISSVQAEDLAVYYCQNDYNYPFTFGSGTKLEIK"}},
  "target": "T1, amyloid β-derived diffusible ligands (ADDLs), oligomers of Aβ1-42",
  "T1 construct": "number of chains not fixed; also called Aβ oligomers; Aβ1-42 oligomers",
  "assay": "sandwich ELISA, 6E10 as capture and as detection antibody, Aβ oligomers titrated (log RFU axis)",
  "data": [
    {"binder": "B1", "values": [
      {"measurement": "EC50 (read off the curve)", "value": "~5", "unit": "nM"}
    ]}
  ]
}
